B1: ATL3 (parent)
chain: QELEEEIKELYENFCKHNGSKNVF
B2: PTPRD (parent)
chain: ITWFKDFLPVDTSNNNGRIKQLRS

Variants of: B1
Assay: protein stability index of a GFP-peptide fusion (GPS, HEK-293T) (PSI 1-6); higher = more stable
Conditions: c terminus: a fixed tail appended
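Note: lentivirally expressed fusions sorted by FACS into six bins by GFP to DsRed ratio, PSI derived from sequencing read proportions per bin multiplied by bin number.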

Protein stability index, by site and new letter:
Y11: A 4.25; V 3.93; Q 4.58
H17: C 2.65; F 3.2; A 2.52
G19: L 2.55; I 2.99
V23: W 2.85
K16: N 2.36
E9: R 2.59; W 2.41; F 1.86; I 1.95
K21: P 2.37; N 2.42; R 2.12; D 2.11
E5: F 2.27; Q 1.81
L3: Q 4.01
S20: M 2.24
E12: V 2.42; D 2.89
N22: L 2.57; Y 2.05
N18: W 2.85; D 2.28
E4: A 1.97; C 2.81
E2: W 1.9; I 2.36; Y 2.47
K8: M 2.53; W 2.68; P 4.37; I 2.36
N13: F 2.72; M 1.79
F24: R 3.24; M 3.06; S 3.28; C 3.17; I 2.48
Q1: K 2.31; A 2.22

Variants of: B2
Assay: as above
Conditions: c terminus: a fixed tail appended

Protein stability index, by site and new letter:
T12: D 1.99; E 2.06; I 2.01; K 2.01; A 1.98; M 2.32; R 1.9; W 1.84; H 1.48
N14: V 1.76; R 1.98; L 1.96; F 1.5; D 1.66; Q 2.02; T 1.76; W 2.16; A 2.03; Y 1.51; C 1.52
P9: C 1.58; G 1.72; T 1.42; F 1.93; L 2.84; N 2.28; Q 2.12; D 2.09; R 1.43; H 1.45; S 2.13; A 2; Y 1.66
D11: P 2.06; V 1.86; H 1.73; A 1.9; S 2.06; G 1.99; F 1.9; Q 1.84; R 1.35; I 2.44; K 1.71
L8: C 1.81; Y 1.64; A 2.14; K 2.28; F 1.88; I 2.32; G 2; Q 1.78; M 1.49; H 1.93
N15: V 1.74; P 1.82; D 1.74; M 1.8; L 2.37; T 3.44; F 1.6; G 1.72; I 1.58; R 1.71; C 2.26; Y 1.87; W 2.17; H 1.48; Q 1.76
K5: T 2.1; F 1.97; I 2.19; V 1.51; E 2.91; W 1.66; D 2.44; P 2.24; H 2.06; R 1.79; Y 2.75; L 2.08; A 1.98; N 2.12
D6: Y 2.85; M 2.14; W 2.26; A 1.78; V 2.3; S 2.27; L 3.08; H 1.9; N 1.94; F 3.07; I 3.07; E 2.36
S24: Q 1.78; W 2.63; M 1.54; G 2.34; E 1.77; T 1.51; C 2.32; N 1.88; I 1.97; Y 1.94; R 2.18
G17: W 2.63; I 1.53; M 1.34; R 1.5; K 2.86; T 2.25; L 1.73; V 1.31; D 2.09; P 1.73; E 2.62; A 1.58; F 2.33; S 2.33; H 1.37; C 1.88
K20: G 1.58; F 1.98; E 1.74; D 2.05; V 1.68; W 1.95; M 1.55; R 1.53; H 1.63; C 1.43; P 1.61; I 1.31; T 1.95; L 2
W3: R 3.1; H 3.33; G 3.03; M 2.95; T 3.3; I 1.93; L 2.31; C 2.82; Q 3.13
V10: R 1.82; Q 2.17; M 1.86; H 2.07; Y 1.89; K 2.07; D 2.39; S 2.15; I 2.49; N 2.34; P 2.26
T2: W 2.21; E 2.33; A 2.34; Q 1.84; C 2.09; P 3; M 1.96; F 2.41; Y 1.68; L 1.41; G 2.78; K 2.03; V 1.86
Q21: V 1.67; K 2.58; R 1.55; L 1.73; D 2.17; M 1.45; H 1.56; W 2.24; E 2.2; N 1.99; S 2.38; I 2.23; T 1.69
R18: L 1.45; I 1.74; H 2.77; V 2.33; N 1.97; Q 2.24; D 1.83; S 1.95; K 1.68; G 2.73; E 1.87
I1: G 3.39; Y 1.92; Q 2.71; T 3.02; C 1.9; S 3.17; K 2.99; E 3.66; P 3.97; D 3.88; H 3.47; A 3.26; M 2.62; R 3.03
L22: F 2.01; I 2.24; D 2; R 1.83; H 2.28; A 1.69; K 1.77; W 1.84; S 2.04; N 2.01; P 1.63
I19: L 2.07; T 2.23; D 2.08; M 2.04; E 1.95; F 2.25; A 1.72; K 2.33; H 1.53; S 1.54; W 1.46; Q 2.57; V 1.73
F4: Q 2.21; I 1.62; H 2.27; T 2.03; C 1.94; D 3.25; R 2.49; A 2.17; V 1.87; N 2.57; E 3.97; L 1.87
N16: P 2.32; S 1.98; L 1.73; R 1.65; M 1.43; T 2.38; C 2.09; V 2.62; K 1.98; H 1.58; F 1.82; G 1.7
R23: H 1.74; M 1.88; I 1.88; K 2.55; T 2.04; F 1.88; A 2.89; W 1.11; Y 1.63; N 1.83
S13: M 2.17; P 2.34; R 1.88; Y 2.05; C 1.54; H 2.05; N 1.68; I 1.41; F 1.52; E 1.7; T 1.95
F7: N 2.47; G 2.25; T 2.38; W 1.82; D 2.74; P 2.32; E 2.45; H 2.76; S 2.36; K 1.88; A 2.45; R 1.8

Source: the supplement of paper PMC10567573
